# Patent publication US7067302B2, “DNA and amino acid sequence of a tyrosine ammonia lyase enzyme from the bacterium Rhodobacter sphaeroides” (E. I. du Pont de Nemours and Company, priority 2002, dated 2006)
# B1: TAL enzyme from Trichosporon cutaneum: inducible TAL enzyme isolated from the yeast Trichosporon cutaneum (protein)
# chain: MFIETNVAKPASTKAMNAGSAKAAPVEPFATYAHSQATKTVSIDGHTMKVGDVVAVARHGAKVELAASVAGPVRASVDFKESKKHTSIYGVTTGFGGSADTRTSDTEALQISLLEHQLCGFLPTDATYEGMLLAAMPIPIVRGAMAVRVNSCVRGHSGVRLEVLQSFADFINRGLVPCVPLRGTISASGDLSPLSYIAGAICGHPDVKVFDTAASPPTVLTSPEAIAKYGLKTVKLASKEGLGLVNGTAVSAAAGALALYDAECLAIMSQTNTVLTVEALDGHVGSFAPFIQEIRPHAGQIEAARNIRHMLGGSKLAVHEESELLADQDAGILRQDRYALRTSAQWIGPQLEALGLARQQIETELNSTTDNPLIDVEGGMFHHGGNFQAMAVTSAMDSARIVLQNLGKLSFAQVTELINCEMNHGLPSNLAGSEPSTNYHCKGLDIHCGAYCAELGFLANPMSNHVQSTEMHNQSVNSMAFASARRTMEANEVLSLLLGSQMYCATQALDLRVMEVKFKMAIVKLLNETLTKHFAAFLTPEQLAKLNTHAAITLYKRLNQTPSWDSAPRFEDAAKHLVGVIMDALMVNDDITDLTNLPKWKKEFAKEAGNLYRSILVATTADGRNDLEPAEYLGQTRAVYEAVRSELGVKVRRGDVAEGKSGKSIGSSVAKIVEAMRDGRLMGAVGKMF
# modifications: T. cutaneum
# B2: wild-type PAL/TAL enzyme from the yeast Rhodosporidium: wild-type PAL/TAL enzyme from the yeast Rhodosporidium (protein, UniProt P11544 1-716, looked up)
# Phenylalanine/tyrosine …: MAPSLDSISHSFANGVASAKQAVNGASTNLAVAGSHLPTTQVTQVDIVEKMLAAPTDSTLELDGYSLNLGDVVSAARKGRPVRVKDSDEIRSKIDKSVEFLRSQLSMSVYGVTTGFGGSADTRTEDAISLQKALLEHQLCGVLPSSFDSFRLGRGLENSLPLEVVRGAMTIRVNSLTRGHSAVRLVVLEALTNFLNHGITPIVPLRGTISASGDLSPLSYIAAAISGHPDSKVHVVHEGKEKILYAREAMALFNLEPVVLGPKEGLGLVNGTAVSASMATLALHDAHMLSLLSQSLTAMTVEAMVGHAGSFHPFLHDVTRPHPTQIEVAGNIRKLLEGSRFAVHHEEEVKVKDDEGILRQDRYPLRTSPQWLGPLVSDLIHAHAVLTIEAGQSTTDNPLIDVENKTSHHGGNFQAAAVANTMEKTRLGLAQIGKLNFTQLTEMLNAGMNRGLPSCLAAEDPSLSYHCKGLDIAAAAYTSELGHLANPVTTHVQPAEMANQAVNSLALISARRTTESNDVLSLLLATHLYCVLQAIDLRAIEFEFKKQFGPAIVSLIDQHFGSAMTGSNLRDELVEKVNKTLAKRLEQTNSYDLVPRWHDAFSFAAGTVVEVLSSTSLSLAAVNAWKVAAAESAISLTRQVRETFWSAASTSSPALSYLSPRTQILYAFVREELGVKARRGDVFLGKQEVTIGSNVSKIYEAIKSGRINNVLLKMLA
# B3: RsTAL: the TAL enzyme from Rhodobacter sphaeroides, 526 amino acids, SEQ ID NO:3 (protein)
# chain: VKPMLAMSPPKPAVELDRHIDLDQAHAVASGGARIVLAPPARDRCRASEARLGAVIREARHVYGLTTGFGPLANRLISGENVRTLQANLVHHLASGVGPVLDWTTARAMVLARLVSIAQGASGASEGTIARLIDLLNSELAPAVPSRGTVGASGDLTPLAHMVLCLQGRGDFLDRDGTRLDGAEGLRRGRLQPLDLSHRDALALVNGTSAMTGIALVNAHACRHLGNWAVALTALLAECLRGRTEAWAAALSDLRPHPGQKDAAARLRARVDGSARVVRHVIAERRLDAGDIGTEPEAGQDAYSLRCAPQVLGAGFDTLAWHDRVLTIELNAVTDNPVFPPDGSVPALHGGNFMGQHVALTSDALATAVTVLAGLAERQIARLTDERLNRGLPPFLHRGPAGLNSGFMGAQVTATALLAEMRATGPASIHSISTNAANQDVVSLGTIAARLCREKIDRWAEILAILALCLAQAAELRCGSGLDGVSPAGKKLVQALREQFPPLETDRPLGQEIAALATHLLQQSPV
# modifications: R. sphaeroides
# Key:
# [1] = literature values; cited from earlier work
# [2] = Kinetic analysis of purified RsTAL with tyrosine (Lineweaver-Burk); assay type: biochemical
# Experimental: Crude cell extracts were generated by sonication of a suspension of the transformed cells, followed by centrifugation. The TAL enzyme activity of the crude cell extracts was determined by an enzyme assay using 40 μg of crude cell extract in 10 mM Tris-HCl, pH 8.5 buffer containing 1 mM tyrosine. The OD of the pHCA produced was followed at 315 nm with an extinction coefficient of […]. The results of the TAL enzyme assay are given in Table 5 in terms of activity units. A unit (U) is defined as follows: one unit of activity deaminated 1 μmol of tyrosine to pHCA per min.
# (§1) A 500 mL culture of the E. coli BL21(DE3)RP(pKK233.RsTAL2) strain was grown in LB Broth, containing […] ampicillin to mid log phase, induced with 1 mM IPTG, and incubated overnight (18 h) in a 37° C. shaker. The cells were centrifuged and resuspended in 10 mL of Buffer A (50 mM Tris-HCl, pH 8.5 buffer, 5 mM DTT (dithiothreitol), and 1 mM tyrosine) containing one and a half EDTA-free protease inhibitor tablets (Roche Applied Science, Indianapolis, Ind.). The cells were then passed through a French Press Cell twice, and centrifuged at 18000 rpm for 20 min. Ammonium sulfate at 30% saturation was added to the […] supernatant and the resulting precipitate was removed by centrifugation. The supernatant from this first fractionation was then treated with ammonium sulfate at 50% saturation. […] The eluted fractions were analyzed for TAL activity, and the fractions containing TAL activity were pooled, precipitated again using ammonium sulfate at 50% saturation, and desalted using a 3 mL desalting column (Bio-Rad Laboratories, Hercules, Calif.). […] TAL activity was detected in the flow-through fractions. […]
# The kinetic parameters of the RsTAL enzyme were characterized using'the TAL enzyme assay described above. The initial rates of the enzyme reaction were measured at tyrosine concentrations of 0.01 to 10 mM in 50 mM Tris-HCl, pH 8.5 buffer. The values of kcat and Km of the RsTAL enzyme for both tyrosine and phenylalanine were determined using Lineweaver-Burk analysis and the results are given in Table 6.
# [3] = Kinetic analysis of purified RsTAL with phenylalanine (Lineweaver-Burk); assay type: biochemical; conditions: substrate phenylalanine
# Experimental: as §1
# The kinetic parameters of the RsTAL enzyme were characterized using'the TAL enzyme assay described above. The initial rates of the enzyme reaction were measured at tyrosine concentrations of 0.01 to 10 mM in 50 mM Tris-HCl, pH 8.5 buffer. […]
# [4] = substrate tyrosine, 50 mM Tris-HCl, pH 8.5
molecule,measurement,setting,value
B1,PAL/TAL activity ratio,[1],0.73
B2,TAL/PAL ratio (TAL catalytic activity to PAL catalytic activity),[1],0.58
B3,Km,[2]; [4],60 µM
same,kcat,[2]; [4],0.02 s⁻¹
same,TAL/PAL Ratio,[2]; tyrosine versus phenylalanine as substrate,19
same,Km,[3],560 µM
same,kcat,[3],0.01 s⁻¹
